Assay results as given in patent publication US7871782B2, “Specific binding members against synaptophysin” (The University Court of the University of Aberdeen, priority 2004, dated 2011).

Legend:
[1] = system: HSCs; test: Effect of scAb incubation on HSC viability (attachment, protein assay); assay type: cell-based, human; conditions: 3 hours incubation, 5 μg scAb or indicated chemical, FIG. 12
Description: Effect of scAb incubation on HSC viability. HSCs seeded into 24 well plates were incubated in 0.3 mls culture medium containing 5 μg scAb or the indicated-chemical. Cells were incubated for 3 hours prior to removal of medium and washing with 1×PBS. Attachment (as a measure of viability) was determined by a direct protein assay in the culture wells.

[2] = system: human HSCs; test: Fluorescence microscopy without fixation: effect of peptides and monensin on FITC-C1-3 scAb binding; assay type: cell-based; conditions: monensin 2.5 and 15 μM; for effect on FITC-C1-3 association/binding to HSCs: added with 10 μg FITC-C1-3 scAb, peptides 0.25-25 nmoles, FIG. 13
Description: Effect of synaptophysin peptides and monensin on FITC-C1-3 scAb binding to human HSCs. Human HSCs seeded into 24 well plates were washed and incubated in 500 μl Hepes/HBSS per well for 1 hour containing either: 10 μg C1-3 scAb; 10 μg FITC-C1-3 scAb; 10 μg FITC-C1-3 scAb and 0.25 nmoles of the target peptide; 10 μg FITC-C1-3 scAb and 2.5 nmoles of the target peptide; 10 μg FITC-C1-3 scAb and 25 nmoles of the target peptide; 10 μg FITC-C1-3 scAb and 25 nmoles of the target peptide P1; 10 μg FITC-C1-3 scAb and 2.5 μM monensin; 10 μg FITC-C1-3 scAb and 15 μM monensin; 10 μg FITC-3A8 scAb (scAb raised to microcystin and not expected to bind to HSCs). Cells incubated with monensin were preincubated for 10 minutes. Just prior to addition of scAb, the medium was changed and cells were re-dosed with monensin. […] Bar=μm. Monen=monensin; P1=the […] peptide (SEQ ID NO 27); P2=the target peptide.
HSCs seeded into 24 well plates were washed with Hepes/HBSS and then incubated at 37° C. in 500 μl/well Hepes/HBSS containing 10 μg scAb with or without additional compounds. After 1 hour, the cells were washed 3 times with 500 μl Hepes/HBSS. Cells were analysed using an Axiovert 100 microscope (Zeiss, Germany) using filter set #9 (BP 450-490 nm; LP 515 nm).

[3] = system: human hepatocytes; test: Fluorescence microscopy of FITC-labelled scAb with cells; assay type: cell-based
Description: (§1) FITC-C1-3 scAb was tested for its ability to interact with hepatic stellate cells in culture by fluorescence microscopy. Human hepatic stellate cells were seeded (1×10^3 cells per chamber) on chamber slides (Nunclon, Naperville) in complete medium prior to experimentation. Cells were washed twice in phosphate buffered saline (PBS) and incubated in 500 μl Hepes/HBSS buffer (0.14M NaCl, 5.4 mM KCl, 0.34 mM Na2HPO4, 0.94 mm KH2PO4, 5.6 mM glucose, 1 mM CaCl2, 6 mM HEPES, 4 mM NaHCO3 pH7.4) containing 10 μg scAb or FITC-C1-3 scAb for 1 h at room temperature in the dark. The cells were then washed in PBS and mounted with Vectashield mounting medium (Vector laboratories, Burlingame, Calif.) containing 4′,6′ diamindino-2 phenylindole (DAPI) to stain cell nuclei and coverslips applied. Florescence microscopy was carried out using a Zeiss Axeola II microscope with a Photometrics Sensis camera, and data captured using the Smart Capture programme. Human hepatocytes (UK Human Tissue Bank) were originally cultured in a collagen-coated 24 well plate (1×10^5/well) and maintained in William's medium E supplemented with 80 units/ml penicillin and 80 μg/ml streptomycin.

[4] = system: human hepatic stellate cells; test: as above; assay type: cell-based; conditions: 10 μg scAb, 1 h, room temperature
Description: as §1

[5] = biological target: T1, peptide YPFRLHQVYFDAPSC (SEQ ID NO 9) (Homo sapiens, UniProt P08247); test: Expressed purified anti-peptide scAb ELISA; assay type: binding
T1 construct: host or cells: chemical synthesis (Fmoc), no expression host
Description: Expressed scAb was tested for its ability to interact with the peptide […] (SEQ ID NO: 9) by ELISA using anti-BSA-target peptide scAb. Wells of a 96 well plate were coated with BSA-target peptide or BSA and incubated with either C1-3 scAb (grey bars) or control scAb incubation buffer (clear bars) followed by extensive washing. Bound scAb was detected using the HRP conjugated anti-human Cκ light chain antibody and quantitated as outlined in methods section. Data are the mean and standard deviation of 3 separate determinations. ‘BSA-peptide 2’ is the target peptide.
(§2) Purified polyclonal phage enriched for binders to peptides were assayed by ELISA using flat bottomed 96-well Immulon-4 microtitre plates (Dynex, Sussex, UK) coated with 2 μg/well protein (peptide-BSA or BSA) in PBS overnight at 4° C. Bound phage were detected by incubation with 100 μl/well horseradish peroxidase (HRP) conjugated anti-M13 antibody (AmershamPharmacia) for 1 h, washing, and incubation with 100 μl/well tetramethylbenzidine dihydrochloride solution (KPL Laboratories, Gaithersburg, Md.). Reactions were stopped with 50 μl/well 1M H2SO4, and the absorbance at 450 nm read using a microtitre plate reader.
Expressed scAb was tested for its ability to interact with peptide by ELISA essentially as outlined for polyclonal anti-peptide phage-antibody ELISAs. […]

[6] = system: human HSCs; test: Uptake of scAb and conjugates by human HSCs in culture (Western blot of medium); assay type: cell-based; conditions: 5 μg scAb in 0.3 mls medium, FIG. 11
Description: Uptake of C1-3 scAb and C1-3-conjugates by human HSCs in culture. HSCs seeded into 24 well plates were incubated in 0.3 mls culture medium containing 5 μg scAb. Samples of medium were taken at the indicated times and subjected to Western blotting to detect scAb using HRP-conjugated anti-human Cκ light chain antibody (UPPER PANEL) and serum albumin (LOWER PANEL) as a loading control. Results typical of 4 separate experiments.

[7] = system: HepG2 cells; test: Fluorescence binding to cells; assay type: cell-based
[8] = system: COS-7 cells; test: Fluorescence binding to cells; assay type: cell-based
[9] = system: hepatic stellate cell and hepatocytes co-cultured; assay type: cell-based, human
Description: For co-culture experiments, hepatic stellate cells were seeded into hepatocytes cultures (1×10^3 cells per well) and cultured for 24 h prior to experimentation. The C1-3 or FITC-C1-3 scAb was incubated as outlined for pure hepatic stellate cell cultures except that after 1 hour incubation and washing, the cells were harvested by trypsinisation and centrifugation at 1000 rpm for 5 min. The cell pellet was then resuspended in 0.4% formaldehyde/10^6 cells, applied onto glass slides by cytocentrifugation and mounted with Vectashield containing DAPI. Slides were viewed by fluorescence microscopy as before.

[10] = biological target: T2, synaptophysin in human HSCs (Homo sapiens, UniProt P08247); test: Western analysis of cell extracts probed with C1-3 scAb; assay type: binding; conditions: human HSC extract, FIG. 8
T2 construct: endogenous in cells; host or cells: human hepatic stellate cells (patient-derived, AH4)
Description: (§3) Western blot showing the binding of C1-3 scAb to the target peptide. Cell extracts (5 μg/lane) were subjected to Western blotting and membranes probed with C1-3 scAb followed by incubation with HRP conjugated anti-human Cκ light chain antibody and detection using ECL reagent. rHSCs—rat hepatic stellate cells; hHSCs—human hepatic stellate cells (AH4=anonymous patient code); rHCs—rat hepatocytes; B13—rat pancreatic stem cell; B13-H—rat pancreatic stem cell after trans-differentiation into an hepatocyte.
(§4) Western blotting was performed essentially as described in Wright M. C. et al. Mol Pharmacol 1996; 50:856-63.

[11] = biological target: T3, synaptophysin in rat HSCs (Rattus norvegicus, UniProt P07825); test: as above; assay type: binding; conditions: rat HSC extract, FIG. 8
T3 construct: endogenous in cells; host or cells: rat hepatic stellate cells
Description: as §3, §4

[12] = biological target: T4, target peptide-BSA (Homo sapiens, UniProt P08247); test: Monoclonal phage-antibody ELISA; assay type: binding; conditions: FIG. 3
T4 construct: host or cells: chemical synthesis (Fmoc), no expression host
Description: C1-phage antibody clone (monoclonal) assayed for binding to the target peptide-BSA as outlined for FIG. 2.
as §2
Individual colonies from pan 3 were grown in 96 well plates (Greiner) and phage-antibodies rescued with M13 KO7.
Specificity of phage supernatants for binding to peptide-BSA and BSA alone was determined by ELISA. The scFv encoding regions of positive clones were subcloned in to the expression vector pIMS147. This is a modification of the IPTG (isopropyl-β-D-thiogalactopyranoside) inducible pUC based vector pIMS100 (Hayhurst A. et al. Protein Expr Purif 1999; 15:336-43). The addition of a hexa-histadine tag permits purification of the expressed scAb by immobilised metal ion chelate affinity chromatography. Vectors were transformed into E. coli TG1 or XL1 blue cells.

T2 sequence (P08247 whole entry): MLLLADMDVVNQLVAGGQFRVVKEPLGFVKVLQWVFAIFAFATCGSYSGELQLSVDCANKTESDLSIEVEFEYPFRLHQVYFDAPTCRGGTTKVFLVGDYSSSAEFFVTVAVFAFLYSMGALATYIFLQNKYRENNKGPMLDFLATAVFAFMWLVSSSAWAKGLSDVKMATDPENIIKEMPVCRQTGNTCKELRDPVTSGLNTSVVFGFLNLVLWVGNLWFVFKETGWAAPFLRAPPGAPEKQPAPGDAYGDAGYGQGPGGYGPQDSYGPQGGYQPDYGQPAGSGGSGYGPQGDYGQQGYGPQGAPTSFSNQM
T3 sequence (P07825 whole entry): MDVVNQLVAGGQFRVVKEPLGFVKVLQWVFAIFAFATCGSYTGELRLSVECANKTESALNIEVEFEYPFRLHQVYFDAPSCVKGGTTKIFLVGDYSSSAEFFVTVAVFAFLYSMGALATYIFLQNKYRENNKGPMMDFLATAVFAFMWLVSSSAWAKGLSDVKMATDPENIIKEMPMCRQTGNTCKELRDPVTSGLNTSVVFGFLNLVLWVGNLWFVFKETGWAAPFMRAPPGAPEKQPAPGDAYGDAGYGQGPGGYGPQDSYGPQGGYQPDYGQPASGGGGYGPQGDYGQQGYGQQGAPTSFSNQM

CN(C)CCCN1c2ccccc2Sc2ccc(Cl)cc21 [chlorpromazine]
toxicity to HSCs (attachment as measure of viability) [1]: kill HSCs

CC[C@@]1([C@@H]2O[C@@H]([C@H]3O[C@@](O)(CO)[C@H](C)C[C@@H]3C)C[C@@H]2C)CC[C@H]([C@]2(C)CC[C@]3(C[C@H](O)[C@@H](C)[C@@H]([C@@H](C)[C@@H](OC)[C@H](C)C(=O)O)O3)O2)O1 [monensin]
effect on FITC-C1-3 association/binding to HSCs [2]: did not inhibit the total number of cells stained
effect on FITC-C1-3 uptake (nuclear FITC-C1-3 staining) ([2]; 10 minutes preincubation): reduced uptake

ATDPENIIKEMPMC (listed as Homo sapiens)
effect on FITC-C1-3 association/binding to HSCs [2]: did not significantly inhibit

FITC-BSA: FITC labelled bovine serum albumin, specificity control [reference compound]
green fluorescence associated with human hepatocytes [3]: displayed cytoplasmic foci of fluorescence
green fluorescence associated with hepatic stellate cells [4]: displayed cytoplasmic foci of fluorescence

YPFRLHQVYFDAPSC (listed as Homo sapiens) [C1-3 antigen]
effect on FITC-C1-3 association/binding to HSCs [2]: decreased FITC-C1-3 binding to HSCs in a dose-dependent manner

B1: C1-3 scAb: human single-chain antibody fragment with human Cκ domain and His tag, specific for synaptophysin peptide …; amino acid sequence SEQ ID NO 8 (protein)
scFv: MAEVQLLESGGGLVQPGGSLRLSCAASGFTFSSYAMSWVRQAPGKGLEWVSTIAASGPSTGYADSVKGRFTISRDNSKNTLYLQMNSLRAEDTAVYYCAKTTAKFDYWGQGTLVTVSSGGGGSGGGGSGGGGSTDIQMTQSPSSLSASVGDRVTITCRASQSISSYLNWYQQKPGKAPKLLIYSASRLQSGVPSRFNGSGSGTDFTLTISSLQPEDFATYYCQQLQRKPTTFGQGTKVEIKRGAAAPSVFIF
modifications: human Cκ domain and His tag; C1-3 amino acid sequence
scAb bound to peptide-BSA relative to BSA alone ([5]; ELISA, FIG. 7): approximately 8 times
recognition of the peptide in ELISA ([5]; expressed scAb from XL-1 blue E coli): specifically recognised the peptide
association with HSCs: change of culture medium concentration of scAb [6]: reduction in culture medium concentrations
fluorescence binding to HepG2 cells [7]: not detected
fluorescence binding to COS-7 cells [8]: not detected
green fluorescence in hepatic stellate cell/hepatocyte co-cultures [9]: No significant green fluorescence
green fluorescence associated with human hepatocytes [3]: no associated green fluorescence
green fluorescence associated with hepatic stellate cells [4]: No detectable green fluorescence
size of protein bound by scAb in Western analysis [10]: ~32 kDa
cross-reaction with synaptophysin in rat HSCs [11]: did not cross-react

B2: C1: monoclonal phage-antibody clone from pan 3 of Tomlinson I+J libraries, subcloned to give C1-3 scAb (protein)
scFv: MAEVQLLESGGGLVQPGGSLRLSCAASGFTFSSYAMSWVRQAPGKGLEWVSTIAASGPSTGYADSVKGRFTISRDNSKNTLYLQMNSLRAEDTAVYYCAKTTAKFDYWGQGTLVTVSSGGGGSGGGGSGGGGSTDIQMTQSPSSLSASVGDRVTITCRASQSISSYLNWYQQKPGKAPKLLIYSASRLQSGVPSRFNGSGSGTDFTLTISSLQPEDFATYYCQQLQRKPTTFGQGTKVEIKRGAAA
binding response in monoclonal phage-antibody ELISA [12]: good binding response
